Measurements as given in patent US20140242093A1, “METHODS AND COMPOSITIONS FOR MODULATING THE INNATE IMMUNE RESPONSE AND/OR MYOGENESIS IN A MAMMALIAN SUBJECT” (FRED HUTCHINSON CANCER RESEARCH CENTER, priority 2011, published 2014).
“And” between values parts separate entries of the source, which are not always exact repeats. Equal entries are not always repeated.

Assays:
[1] = test system: Cultured control myoblasts; test: Beta-defensin 3 on myoblasts in growth media, expression arrays and MSTN qPCR; assay type: cell-based, human
Description: Cultured control myoblasts were grown at 50% confluence and treated with 1 μM human β-defensin 3. Equivalent volume of vehicle (water) was added to myoblasts for the control condition. Quadruplicate samples of control- and DEFB103-treated myoblasts were assessed for global expression changes on HumanHT-12 v4 Expression BeadChip Whole Genome arrays and analyzed as described in main methods. Differential expression of myostatin (MSTN) was confirmed by real-time qPCR.

[2] = test system: Cultured control human myoblasts; test: Beta-defensin 3 and innate immune response, real-time qPCR of IFIH1, ISG20, DEFB103; assay type: cell-based
Description: Cultured control human myoblasts were grown to 80% confluence and infected with equivalent titers of lenti-GFP, lenti-DUX4-s and lenti-DUX4-fl in growth media supplemented with 8 μg/mL polybrene. Expression of innate immune responsive genes including IFIH1 (MDA5), ISG20 and DEFB103 were assessed by real-time qPCR as previously described at 24 hours (primer sequences below). For conditioned media, cells were infected with lenti-DUX4-fl for 12 hours, thoroughly washed 3 times with PBS and switched to fresh growth media to condition for 12 hours. Control conditioned media was produced from cells not infected with any lentivirus. Myoblasts were infected with lenti-GFP in either control conditioned media, lenti-DUX4-fl conditioned media or regular growth media supplemented with 1 μM human β-defensin 3 (Peptides International, Louisville, Ky.). Expression of innate immune responsive genes were examined after 24 hours.

[3] = test system: control myoblasts in differentiation media
Description: Cultured control myoblasts were grown to confluence and switched to differentiation media (as described in Snider et al., 2010). 24 hours later, media was refreshed and either supplemented with 1 μM human β-defensin 3 or equivalent volume of water. Media was refreshed again at 48 hours. Cells were differentiated for a total of 72 hours. Quadruplicate samples were analyzed by expression microarrays as described above.

[4] = test system: Cultured primary muscle cells; test: Beta-defensin 3 and myotube formation, immunostaining for myosin heavy chain; assay type: cell-based; settings: 0.5 uM, 72 hours in differentiation medium
Description: Cultured primary muscle cells were cultured in differentiation medium for 72 hours in the presence or absence of 0.5 uM Human β-defensin 3.

B1: DEFB103: human β-defensin 3 peptide (Peptides International), polypeptide SEQ ID NO:178 (peptide, listed as Homo sapiens)
chain: MRIHYLLFALLFLFLVPVPGHGGIINTLQKYYCRVRGGRCAVLSCLPKEEQIGKCSTRGRKCCRRKK
mRNA for myostatin ([1]; RT-qPCR, myoblasts): increased the mRNA for myostatin | gene expression changes in myoblasts ([1]; expression arrays, 2-fold change threshold): did not alter the expression of any genes | myostatin upregulation ([1]; expression arrays, myoblasts): approximately 50% | induction of innate immune genes by lenti-GFP ([2]; RT-qPCR of IFIH1 and ISG20, FIG. 8): inhibited the induction of the innate immune response to lenti-GFP | viral entry and transduction ([2]; copies of viral integrants and GFP mRNA): did not prevent viral entry and transduction | log2 FC defMT/MT, CYP2J2 [3]: −1.05 | expression of muscle differentiation genes (ACTA1, CKM, CASQ2, MYH2, TNNT3) ([3]; RT-qPCR, FIG. 11): inhibits the expression of genes necessary for normal muscle differentiation | number of genes with reduced expression ([3]; differentiating muscle cells vs untreated control): 44 genes | log2 FC defMT/MT, ACTA1 ([3]; gene ACTA1, log2 ratio of expression in DEFB103 treated muscle cells compared to control muscle cells, differentiation media): −2.65 | log2 FC defMT/MT, AIF1L ([3]; gene AIF1L, DEFB103 treated vs control differentiating muscle cells): −1.16 | log2 FC defMT/MT, AKR1C2 ([3]; gene AKR1C2, DEFB103 treated vs control differentiating muscle cells): 1.41 | log2 FC defMT/MT, ANGPTL4 ([3]; gene ANGPTL4, DEFB103 treated vs control differentiating muscle cells): 1.21 | log2 FC defMT/MT, ARPP-21 ([3]; gene ARPP-21, DEFB103 treated vs control differentiating muscle cells): −1.06 | log2 FC defMT/MT, ATP2A2 ([3]; gene ATP2A2, DEFB103 treated vs control differentiating muscle cells): −1.04 | log2 FC defMT/MT, CACNG1 ([3]; gene CACNG1, DEFB103 treated vs control differentiating muscle cells): −1.58 | log2 FC defMT/MT, CASQ2 ([3]; gene CASQ2, DEFB103 treated vs control differentiating muscle cells): −2.00 | log2 FC defMT/MT, CKB ([3]; gene CKB, DEFB103 treated vs control differentiating muscle cells): −1.16 | log2 FC defMT/MT, CKM ([3]; gene CKM, DEFB103 treated vs control differentiating muscle cells): −1.90 | log2 FC defMT/MT, CTGF ([3]; gene CTGF, DEFB103 treated vs control differentiating muscle cells): −1.12 | log2 FC defMT/MT, DKK1 ([3]; gene DKK1, DEFB103 treated vs control differentiating muscle cells): 1.22 | log2 FC defMT/MT, ENO3 ([3]; gene ENO3 (two array entries), DEFB103 treated vs control differentiating muscle cells): −1.51 and −1.47 | log2 FC defMT/MT, FOLR1 ([3]; gene FOLR1 (two array entries), DEFB103 treated vs control differentiating muscle cells): −1.10 and −1.03 | log2 FC defMT/MT, HBEGF ([3]; gene HBEGF, DEFB103 treated vs control differentiating muscle cells): −1.10 | log2 FC defMT/MT, HES6 ([3]; gene HES6, DEFB103 treated vs control differentiating muscle cells): −1.24 | log2 FC defMT/MT, HFE2 ([3]; gene HFE2, DEFB103 treated vs control differentiating muscle cells): −1.04 | log2 FC defMT/MT, HMOX1 ([3]; gene HMOX1, DEFB103 treated vs control differentiating muscle cells): 1.66 | log2 FC defMT/MT, HRC ([3]; gene HRC, DEFB103 treated vs control differentiating muscle cells): −1.40 | log2 FC defMT/MT, IL32 ([3]; gene IL32, DEFB103 treated vs control differentiating muscle cells): −1.03 | log2 FC defMT/MT, LMCD1 ([3]; gene LMCD1, DEFB103 treated vs control differentiating muscle cells): −1.03 | log2 FC defMT/MT, LOC389827 ([3]; gene LOC389827 (two array entries), DEFB103 treated vs control differentiating muscle cells): −1.48 and −1.38 | log2 FC defMT/MT, MME ([3]; gene MME, DEFB103 treated vs control differentiating muscle cells): 1.27 | log2 FC defMT/MT, MT1X ([3]; gene MT1X, DEFB103 treated vs control differentiating muscle cells): 1.65 | log2 FC defMT/MT, MYBPH ([3]; gene MYBPH, DEFB103 treated vs control differentiating muscle cells): −1.49 | log2 FC defMT/MT, MYH3 ([3]; gene MYH3, DEFB103 treated vs control differentiating muscle cells): −2.20 | log2 FC defMT/MT, MYH7 ([3]; gene MYH7, DEFB103 treated vs control differentiating muscle cells): −1.73 | log2 FC defMT/MT, MYH8 ([3]; gene MYH8, DEFB103 treated vs control differentiating muscle cells): −2.62 | log2 FC defMT/MT, MYL1 ([3]; gene MYL1 (two array entries), DEFB103 treated vs control differentiating muscle cells): −1.18 and −1.11 | log2 FC defMT/MT, MYL6B ([3]; gene MYL6B, DEFB103 treated vs control differentiating muscle cells): −1.00 | log2 FC defMT/MT, MYLPF ([3]; gene MYLPF, DEFB103 treated vs control differentiating muscle cells): −1.53 | log2 FC defMT/MT, MYOM1 ([3]; gene MYOM1, DEFB103 treated vs control differentiating muscle cells): −1.20 | log2 FC defMT/MT, NDRG1 ([3]; gene NDRG1, DEFB103 treated vs control differentiating muscle cells): 1.01 | log2 FC defMT/MT, PLIN2 ([3]; gene PLIN2 (two array entries), DEFB103 treated vs control differentiating muscle cells): 1.61 and 1.79 | log2 FC defMT/MT, PRAGMIN ([3]; gene PRAGMIN, DEFB103 treated vs control differentiating muscle cells): −1.10 | log2 FC defMT/MT, RASSF4 ([3]; gene RASSF4, DEFB103 treated vs control differentiating muscle cells): −1.03 | log2 FC defMT/MT, SMPX ([3]; gene SMPX, DEFB103 treated vs control differentiating muscle cells): −1.76 | log2 FC defMT/MT, SMYD1 ([3]; gene SMYD1, DEFB103 treated vs control differentiating muscle cells): −1.07 | log2 FC defMT/MT, TNNC1 ([3]; gene TNNC1, DEFB103 treated vs control differentiating muscle cells): −1.45 | log2 FC defMT/MT, TNNC2 ([3]; gene TNNC2, DEFB103 treated vs control differentiating muscle cells): −1.49 | log2 FC defMT/MT, TNNT1 ([3]; gene TNNT1, DEFB103 treated vs control differentiating muscle cells): −1.00 | log2 FC defMT/MT, TNNT3 ([3]; gene TNNT3 (two array entries), DEFB103 treated vs control differentiating muscle cells): −1.55 and −1.52 | log2 FC defMT/MT, TPM2 ([3]; gene TPM2, DEFB103 treated vs control differentiating muscle cells): −1.41 | log2 FC defMT/MT, VASH2 ([3]; gene VASH2, DEFB103 treated vs control differentiating muscle cells): −1.22 | log2 FC defMT/MT, ZFP106 ([3]; gene ZFP106, DEFB103 treated vs control differentiating muscle cells): −1.09 | muscle cell fusion and myosin heavy chain expression [4]: inhibits muscle cell fusion and expression of myosin heavy chain
